These results are taken from patent US20160159920A1.

This experiment deals with human Leptin receptor (LepR) (human) (UniProt P48357). Description: cell-based or functional assay.

Several values for one entry are separate records, joined by “and”; a condition that tells them apart may be missing. Equal values may be shown once.

human Leptin receptor (LepR) (human), sequence (P48357 22-1165): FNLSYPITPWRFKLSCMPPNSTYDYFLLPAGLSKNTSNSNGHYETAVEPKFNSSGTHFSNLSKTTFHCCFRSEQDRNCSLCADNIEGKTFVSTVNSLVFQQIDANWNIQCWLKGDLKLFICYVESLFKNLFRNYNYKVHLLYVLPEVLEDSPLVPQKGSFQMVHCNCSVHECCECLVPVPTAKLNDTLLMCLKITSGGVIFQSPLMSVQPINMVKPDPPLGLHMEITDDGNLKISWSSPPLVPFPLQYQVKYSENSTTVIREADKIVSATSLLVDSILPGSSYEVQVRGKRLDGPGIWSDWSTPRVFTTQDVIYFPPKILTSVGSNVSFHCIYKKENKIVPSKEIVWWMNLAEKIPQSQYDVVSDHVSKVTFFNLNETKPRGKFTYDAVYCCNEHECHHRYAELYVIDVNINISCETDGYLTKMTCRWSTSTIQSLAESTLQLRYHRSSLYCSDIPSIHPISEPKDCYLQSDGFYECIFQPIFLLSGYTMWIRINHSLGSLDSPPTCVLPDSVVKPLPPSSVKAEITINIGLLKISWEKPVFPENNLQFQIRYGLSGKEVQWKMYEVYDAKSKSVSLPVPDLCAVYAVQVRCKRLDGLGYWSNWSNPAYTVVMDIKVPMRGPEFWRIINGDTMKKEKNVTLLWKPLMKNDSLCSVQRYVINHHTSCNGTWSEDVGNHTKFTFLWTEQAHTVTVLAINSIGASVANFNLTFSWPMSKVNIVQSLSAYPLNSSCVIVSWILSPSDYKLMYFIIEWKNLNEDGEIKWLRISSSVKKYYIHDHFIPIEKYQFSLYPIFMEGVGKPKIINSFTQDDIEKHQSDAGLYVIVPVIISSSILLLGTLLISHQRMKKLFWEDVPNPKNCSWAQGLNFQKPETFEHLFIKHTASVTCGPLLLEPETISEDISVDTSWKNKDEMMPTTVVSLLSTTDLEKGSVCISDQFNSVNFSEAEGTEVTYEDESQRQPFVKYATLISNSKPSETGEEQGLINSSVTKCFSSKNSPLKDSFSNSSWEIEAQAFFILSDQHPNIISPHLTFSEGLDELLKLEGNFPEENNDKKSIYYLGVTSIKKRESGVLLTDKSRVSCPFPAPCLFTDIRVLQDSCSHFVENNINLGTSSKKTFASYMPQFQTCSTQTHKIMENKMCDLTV

Regarding “hLeptin (SEQ ID NO: 238) (from UniProt P41159 22-167) (ligand)”, the EC50, AlamarBlue proliferation of Baf3 stable cells overexpressing LepR is 129 ρM and 58.2 ρM.
